Experimental data as given in the supplement of paper PMC9112550, “Optimization of the antimicrobial peptide Bac7 by deep mutational scanning” (BMC Biology, 2022).

Each sequence was assayed on Escherichia coli TOP10 (assay: shrunken log2 fold change of peptide-encoding DNA abundance (4.5 h post-induction vs induction); higher = less antimicrobial activity (less host growth inhibition)). Conditions: time post-induction: 4.5 h; library: site-saturation at positions 5, 18, 19, 20.
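Also: peptides expressed intracellularly from a pBAD plasmid library in pooled LB shake-flask culture, induced with 0.3% L-arabinose, DNA abundance read by NGS, three biological replicates, DESeq2 with apeglm shrinkage.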

Sequence | shrunken log2 fold change
RRIRKRPPRLPRPRPRPGKAPRP | -0.0571
RRIRKRPPRLPRPRPRPGKKPRP | -0.0204
RRIRKRPPRLPRPRPRPGLDPRP | 0.626
RRIRKRPPRLPRPRPRPGLRPRP | 0.708
RRIRKRPPRLPRPRPRPGMQPRP | -0.00459
RRIRKRPPRLPRPRPRPGNIPRP | -0.0196
RRIRKRPPRLPRPRPRPGNKPRP | -0.0985
RRIRKRPPRLPRPRPRPGNSPRP | -0.0266
RRIRKRPPRLPRPRPRPGPMPRP | 0.595
RRIRKRPPRLPRPRPRPGQHPRP | -0.000613
RRIRKRPPRLPRPRPRPGQSPRP | 0.306
RRIRKRPPRLPRPRPRPGREPRP | 0.913
RRIRKRPPRLPRPRPRPGRKPRP | 0.0872
RRIRKRPPRLPRPRPRPGRMPRP | 0.554
RRIRKRPPRLPRPRPRPGRNPRP | -0.105
RRIRKRPPRLPRPRPRPGSSPRP | -0.0653
RRIRKRPPRLPRPRPRPGTRPRP | 0.165
RRIRKRPPRLPRPRPRPGWDPRP | 0.364
RRIRKRPPRLPRPRPRPGWIPRP | 1.07
RRIRKRPPRLPRPRPRPHACPRP | 0.0691
RRIRKRPPRLPRPRPRPHAQPRP | 0.133
RRIRKRPPRLPRPRPRPHCFPRP | 0.0684
RRIRKRPPRLPRPRPRPHCGPRP | -0.0593
RRIRKRPPRLPRPRPRPHCWPRP | 0.17
RRIRKRPPRLPRPRPRPHIQPRP | -0.224

Sequence | shrunken log2 fold change
RRIRKRPPRLPRPRPRPHKAPRP | -0.0179
RRIRKRPPRLPRPRPRPHKEPRP | -0.0849
RRIRKRPPRLPRPRPRPHKIPRP | 0.134
RRIRKRPPRLPRPRPRPHKTPRP | -0.0618
RRIRKRPPRLPRPRPRPHPRPRP | 1.27
RRIRKRPPRLPRPRPRPHQDPRP | 0.0154
RRIRKRPPRLPRPRPRPHRCPRP | 0.0753
RRIRKRPPRLPRPRPRPHSAPRP | 0.246
RRIRKRPPRLPRPRPRPHSCPRP | 0.0828
RRIRKRPPRLPRPRPRPHSPPRP | 0.16
RRIRKRPPRLPRPRPRPHSTPRP | -0.0637
RRIRKRPPRLPRPRPRPHTDPRP | -0.0857
RRIRKRPPRLPRPRPRPHVCPRP | -0.00289
RRIRKRPPRLPRPRPRPHVFPRP | 0.015
RRIRKRPPRLPRPRPRPHVYPRP | 0.22
RRIRKRPPRLPRPRPRPHWWPRP | 0.119
RRIRKRPPRLPRPRPRPHYMPRP | -0.0279
RRIRKRPPRLPRPRPRPHYSPRP | -0.257
RRIRKRPPRLPRPRPRPICRPRP | 0.0069
RRIRKRPPRLPRPRPRPIDPPRP | -0.0828
RRIRKRPPRLPRPRPRPIEMPRP | -0.202
RRIRKRPPRLPRPRPRPIFRPRP | 0.132
RRIRKRPPRLPRPRPRPIFSPRP | -0.143
RRIRKRPPRLPRPRPRPIFWPRP | 0.313
RRIRKRPPRLPRPRPRPIGNPRP | 0.0844

Sequence | shrunken log2 fold change
RRIRKRPPRLPRPRPRPIHRPRP | -0.0202
RRIRKRPPRLPRPRPRPIHVPRP | -0.0353
RRIRKRPPRLPRPRPRPIHYPRP | -0.15
RRIRKRPPRLPRPRPRPIIQPRP | 0.0837
RRIRKRPPRLPRPRPRPIISPRP | -0.132
RRIRKRPPRLPRPRPRPIIYPRP | 0.0162
RRIRKRPPRLPRPRPRPILPPRP | 2.29
RRIRKRPPRLPRPRPRPILTPRP | -0.149
RRIRKRPPRLPRPRPRPIPEPRP | 0.163
RRIRKRPPRLPRPRPRPIPRPRP | 1.3
RRIRKRPPRLPRPRPRPIQIPRP | -0.14
RRIRKRPPRLPRPRPRPIQRPRP | -0.0846
RRIRKRPPRLPRPRPRPIRQPRP | 0.0556
RRIRKRPPRLPRPRPRPISLPRP | 0.00252
RRIRKRPPRLPRPRPRPISTPRP | -0.218
RRIRKRPPRLPRPRPRPITKPRP | -0.0212
RRIRKRPPRLPRPRPRPIVPPRP | 0.269
RRIRKRPPRLPRPRPRPKCAPRP | 0.283
RRIRKRPPRLPRPRPRPKEDPRP | 0.795
RRIRKRPPRLPRPRPRPKERPRP | -0.0188
RRIRKRPPRLPRPRPRPKETPRP | 0.35
RRIRKRPPRLPRPRPRPKFFPRP | 0.219
RRIRKRPPRLPRPRPRPKHGPRP | 0.157
RRIRKRPPRLPRPRPRPKIGPRP | 0.295
RRIRKRPPRLPRPRPRPKKMPRP | 0.718

Sequence | shrunken log2 fold change
RRIRKRPPRLPRPRPRPKKTPRP | 0.0396
RRIRKRPPRLPRPRPRPKLPPRP | 0.244
RRIRKRPPRLPRPRPRPKMSPRP | -0.315
RRIRKRPPRLPRPRPRPKNCPRP | 0.0646
RRIRKRPPRLPRPRPRPKNLPRP | 0.177
RRIRKRPPRLPRPRPRPKPQPRP | 0.927
RRIRKRPPRLPRPRPRPKPSPRP | 0.743
RRIRKRPPRLPRPRPRPKQKPRP | 0.054
RRIRKRPPRLPRPRPRPKRCPRP | 0.309
RRIRKRPPRLPRPRPRPKREPRP | 0.393
RRIRKRPPRLPRPRPRPKRWPRP | 0.906
RRIRKRPPRLPRPRPRPKSEPRP | 0.0409
RRIRKRPPRLPRPRPRPKTKPRP | 0.411
RRIRKRPPRLPRPRPRPKTTPRP | 0.0195
RRIRKRPPRLPRPRPRPKVCPRP | -0.0666
RRIRKRPPRLPRPRPRPKYRPRP | -0.00889
RRIRKRPPRLPRPRPRPKYTPRP | -0.113
RRIRKRPPRLPRPRPRPLAMPRP | 0.486
RRIRKRPPRLPRPRPRPLCAPRP | 0.604
RRIRKRPPRLPRPRPRPLCYPRP | -0.213
RRIRKRPPRLPRPRPRPLDPPRP | 0.613
RRIRKRPPRLPRPRPRPLEHPRP | 0.156
RRIRKRPPRLPRPRPRPLEVPRP | 0.0569
RRIRKRPPRLPRPRPRPLFFPRP | 0.147
RRIRKRPPRLPRPRPRPLFLPRP | 0.115

Sequence | shrunken log2 fold change
RRIRKRPPRLPRPRPRPLGQPRP | 0.991
RRIRKRPPRLPRPRPRPLGSPRP | -0.115
RRIRKRPPRLPRPRPRPLKAPRP | 0.0198
RRIRKRPPRLPRPRPRPLKFPRP | -0.118
RRIRKRPPRLPRPRPRPLLDPRP | 0.246
RRIRKRPPRLPRPRPRPLNEPRP | 0.0114
RRIRKRPPRLPRPRPRPLNKPRP | -0.0644
RRIRKRPPRLPRPRPRPLQHPRP | 0.657
RRIRKRPPRLPRPRPRPLQKPRP | -0.0368
RRIRKRPPRLPRPRPRPLQVPRP | 0.333
RRIRKRPPRLPRPRPRPLQYPRP | -0.0563
RRIRKRPPRLPRPRPRPLRQPRP | 0.00205
RRIRKRPPRLPRPRPRPLRYPRP | 0.227
RRIRKRPPRLPRPRPRPLTYPRP | 0.0522
RRIRKRPPRLPRPRPRPLVCPRP | 0.191
RRIRKRPPRLPRPRPRPLWAPRP | 0.452
RRIRKRPPRLPRPRPRPLWMPRP | -0.0285
RRIRKRPPRLPRPRPRPLWWPRP | 0.477
RRIRKRPPRLPRPRPRPLYEPRP | 0.0468
RRIRKRPPRLPRPRPRPMAHPRP | -0.000911
RRIRKRPPRLPRPRPRPMENPRP | 0.0428
RRIRKRPPRLPRPRPRPMGSPRP | 0.0567
RRIRKRPPRLPRPRPRPMHEPRP | 0.191
RRIRKRPPRLPRPRPRPMHPPRP | 0.19
RRIRKRPPRLPRPRPRPMIFPRP | -0.132

Sequence | shrunken log2 fold change
RRIRKRPPRLPRPRPRPMIMPRP | -0.0451
RRIRKRPPRLPRPRPRPMKHPRP | -0.156
RRIRKRPPRLPRPRPRPMLVPRP | -0.0603
RRIRKRPPRLPRPRPRPMNWPRP | 0.134
RRIRKRPPRLPRPRPRPMPCPRP | -0.0242
RRIRKRPPRLPRPRPRPMPMPRP | 0.00883
RRIRKRPPRLPRPRPRPMRRPRP | 0.762
RRIRKRPPRLPRPRPRPMRYPRP | 0.239
RRIRKRPPRLPRPRPRPMSAPRP | 0.0584
RRIRKRPPRLPRPRPRPMTIPRP | -0.191
RRIRKRPPRLPRPRPRPMTRPRP | 0.872
RRIRKRPPRLPRPRPRPMVFPRP | -0.0194
RRIRKRPPRLPRPRPRPMWDPRP | -0.0178
RRIRKRPPRLPRPRPRPMWYPRP | 0.0551
RRIRKRPPRLPRPRPRPNCHPRP | -0.131
RRIRKRPPRLPRPRPRPNCYPRP | -0.08
RRIRKRPPRLPRPRPRPNDTPRP | -0.11
RRIRKRPPRLPRPRPRPNFDPRP | 0.367
RRIRKRPPRLPRPRPRPNFKPRP | 0.166
RRIRKRPPRLPRPRPRPNGPPRP | -0.00695
RRIRKRPPRLPRPRPRPNGWPRP | 0.452
RRIRKRPPRLPRPRPRPNGYPRP | 0.0664
RRIRKRPPRLPRPRPRPNHHPRP | -0.182
RRIRKRPPRLPRPRPRPNHLPRP | -0.0502
RRIRKRPPRLPRPRPRPNHRPRP | -0.334
